Target: Myc-TRAP1 (human) (UniProt Q12931)
Test: SPR; printed as "Ka 26 µM"
Details: enzyme; chains chain; remark: other sources report otherwise

Myc-TRAP1 (human), sequence (Q12931 60-704): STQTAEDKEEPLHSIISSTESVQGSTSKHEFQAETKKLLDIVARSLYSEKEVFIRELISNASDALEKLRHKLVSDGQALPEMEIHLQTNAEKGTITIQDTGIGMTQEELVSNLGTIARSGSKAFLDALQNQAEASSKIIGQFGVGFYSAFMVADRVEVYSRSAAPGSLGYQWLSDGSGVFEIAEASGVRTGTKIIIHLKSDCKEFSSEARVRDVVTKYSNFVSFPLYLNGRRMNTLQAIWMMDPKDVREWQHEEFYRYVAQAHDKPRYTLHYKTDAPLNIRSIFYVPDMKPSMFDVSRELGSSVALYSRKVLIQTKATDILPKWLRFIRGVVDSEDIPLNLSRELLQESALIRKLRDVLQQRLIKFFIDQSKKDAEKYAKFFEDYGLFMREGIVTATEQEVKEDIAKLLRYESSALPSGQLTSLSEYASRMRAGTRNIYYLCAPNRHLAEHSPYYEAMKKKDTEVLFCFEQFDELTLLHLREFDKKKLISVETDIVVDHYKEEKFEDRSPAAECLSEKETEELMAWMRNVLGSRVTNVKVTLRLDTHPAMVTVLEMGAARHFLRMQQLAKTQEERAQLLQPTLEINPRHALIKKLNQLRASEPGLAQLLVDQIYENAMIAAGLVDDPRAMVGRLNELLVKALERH
purified recombinant human cyclophilin D, P30405 30-207, sequence (P30405 30-207): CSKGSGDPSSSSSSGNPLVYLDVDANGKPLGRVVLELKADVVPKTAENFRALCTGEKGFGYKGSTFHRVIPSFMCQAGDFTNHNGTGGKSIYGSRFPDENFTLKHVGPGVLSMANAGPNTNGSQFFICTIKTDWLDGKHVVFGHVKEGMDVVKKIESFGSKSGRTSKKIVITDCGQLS

purified recombinant human cyclophilin D, P30405 30-207
Kd: 26 µM

From PMC9751095
